Source: patent US20210380703A1 (RIGEL PHARMACEUTICALS, published 2021)

Assays:
Goat anti-Human Kappa = target: T1, Goat anti-Human Kappa; assay: ELISA, positive control
T1 construct: Positive control of the ELISA; also called biotinylated goat anti-human kappa light chain
In short: (§1)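 ELISA measured binding of ACVR2A-specific monoclonal antibodies to human and mouse ACVR2A. Biotinylated goat anti-human kappa light chain served as positive control and human Fc as negative control.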

Human ACVR2A = target: T2, Human ACVR2A (human, UniProt P27037 20-135, limits assumed); assay: ELISA
T2 construct: also called activin receptor, type II A
In short: as §1

Mouse ACVR2A = Mouse ACVR2A (mouse, UniProt P27038 20-135, limits assumed); assay: ELISA
In short: as §1
Also: test concentration or dose not given here.

T2 sequence (P27037 20-135 limits assumed): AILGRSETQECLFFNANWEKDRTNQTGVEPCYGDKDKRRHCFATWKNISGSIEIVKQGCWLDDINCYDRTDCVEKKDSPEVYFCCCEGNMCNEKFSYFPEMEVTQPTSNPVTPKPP
Sequence of Mouse ACVR2A (P27038 20-135 limits assumed): as the sequence (P27037 20-135 limits assumed) above, with K20R, V73I counted along it

Row | Binder | optical density (Goat anti-Human Kappa) | optical density (Human ACVR2A) | optical density (Mouse ACVR2A)
1 | 373_C02 (antibody, V domains shown) VH: EVQLLESGGGLVQPGGSLRLSCAASGFTFDDYSMNWVRQAPGKGLEWVSGINYNSGYKGYADSVKGRFTISRDNSKNTLYLQMNSLRAEDTAVYYCARSANWHDTALDYWGQGTLVTVSS VL: DIQMTQSPSSLSASVGDRVTITCRASQSILSYVNWYQQKPGKAPKLLIYAATSRASGVPSRFSGSGSGTDFTLTISSLQPEDFATYYCQQSYNTPLTFGGGTKVEIK | 3.15 OD | 3.45 OD | 3.47 OD
2 | 374_A07 (antibody, V domains shown) VH: EVQLLESGGGLVQPGGSLRLSCAASGFTFSSYSMNWVRQAPGKGLEWVSGINYNSGYKGYADSVKGRFTISRDNSKNTLYLQMNSLRAEDTAVYYCARSANWHDTALDYWGQGTLVTVSS VL: DIQMTQSPSSLSASVGDRVTITCRASQSILSYVNWYQQKPGKAPKLLIYAVTSRASGVPSRFSGSGSGTDFTLTISSLQPEDFATYYCQQSYDLPLTFGGGTKVEIK | 3.07 OD | 3.62 OD | 3.71 OD
3 | 373_D04 (antibody, V domains shown) VH: EVQLLESGGGLVQPGGSLRLSCAASGFTFDSYSMNWVRQAPGKGLEWVSGINYNSGYKGYADSVKGRFTISRDNSKNTLYLQMNSLRAEDTAVYYCARSANWHDTALDYWGQGTLVTVSS VL: DIQMTQSPSSLSASVGDRVTITCRASQSILSYLNWYQQKPGKAPKLLIYAATSRHSGVPSRFSGSGSGTDFTLTISSLQPEDFATYYCQQSYDSPLTFGGGTKVEIK | 3.15 OD | 3.68 OD | 3.65 OD
4 | 373_D10 (antibody, V domains shown) VH: EVQLLESGGGLVQPGGSLRLSCAASGFTFDSYSMNWVRQAPGKGLEWVSNINYNSGYKGYADSVKGRFTISRDNSKNTLYLQMNSLRAEDTAVYYCARSANWHDTALDYWGQGTLVTVSS VL: DIQMTQSPSSLSASVGDRVTITCRASQSILSYVNWYQQKPGKAPKLLIYAATSRASGVPSRFSGSGSGTDFTLTISSLQPEDFATYYCQQSYDLPLTFGGGTKVEIK | 3.11 OD | 3.61 OD | 3.61 OD
5 | 373_E05 (antibody, V domains shown) VH: EVQLLESGGGLVQPGGSLRLSCAASGFTFDSYGMNWVRQAPGKGLEWVSNINYNGGYTSYADSVKGRFTISRDNSKNTLYLQMNSLRAEDTAVYYCARSANWHDTALDYWGQGTLVTVSS VL: DIQMTQSPSSLSASVGDRVTITCRASQSILSYVNWYQQKPGKAPKLLIYAVTSRASGVPSRFSGSGSGTDFTLTISSLQPEDFATYYCQQSYDLPLTFGGGTKVEIK | 3.24 OD | 3.54 OD | 3.59 OD
6 | 374_B04 (antibody, V domains shown) VH: EVQLLESGGGLVQPGGSLRLSCAASGFTFSSYSMNWVRQAPGKGLEWVSNINYNSGYTGYADSVKGRFTISRDNSKNTLYLQMNSLRAEDTAVYYCARSANWHDTALDYWGQGTLVTVSS VL: DIQMTQSPSSLSASVGDRVTITCRASQSIVSYLNWYQQKPGKAPKLLIYAVTSRASGVPSRFSGSGSGTDFTLTISSLQPEDFATYYCQQSYESPLTFGGGTKVEIK | 3.3 OD | 3.67 OD | 3.64 OD
7 | 373_C08 (antibody, V domains shown) VH: EVQLLESGGGLVQPGGSLRLSCAASGFTFSSYSMNWVRQAPGKGLEWVANINYNGGYTSYADSVKGRFTISRDNSKNTLYLQMNSLRAEDTAVYYCARSANWHDTALDYWGQGTLVTVSS VL: DIQMTQSPSSLSASVGDRVTITCRASQSIISYLNWYQQKPGKAPKLLIYAASSLQSGVPSRFSGSGSGTDFTLTISSLQPEDFATYYCQQSYNNPLTFGGGTKVEIK | 3.19 OD | 3.05 OD | 3.19 OD
8 | 373_H01 (antibody, V domains shown) VH: EVQLLESGGGLVQPGGSLRLSCAASGFTFDSYSMNWVRQAPGKGLEWVANINYNGGYTGYADSVKGRFTISRDNSKNTLYLQMNSLRAEDTAVYYCARSANWHDTALDYWGQGTLVTVSS VL: DIQMTQSPSSLSASVGDRVTITCRASQSILSYLNWYQQKPGKAPKLVIYAATSRASGVPSRFSGSGSGTDFTLTISSLQPEDFATYYCQQSYDNPLTFGGGTKVEIK | 3.12 OD | 3.1 OD | 3.28 OD
9 | 373_E12 (antibody, V domains shown) VH: EVQLLESGGGLVQPGGSLRLSCAASGFTFSSYSMNWVRQAPGKGLEWVANINYNGGYTGYADSVKGRFTISRDNSKNTLYLQMNSLRAEDTAVYYCARSANWHDTALDYWGQGTLVTVSS VL: DIQMTQSPSSLSASVGDRVTITCRASQSILSYVNWYQQKPGKAPKLVIYAATSRASGVPSRFSGSGSGTDFTLTISSLQPEDFATYYCQQSYDTPLTFGGGTKVEIK | 3.12 OD | 3.63 OD | 3.33 OD
10 | 373_C11 (antibody, V domains shown) VH: EVQLLESGGGLVQPGGSLRLSCAASGFTFSSYSMNWVRQAPGKGLEWVSGINYNSGYTGYADSVKGRFTISRDNSKNTLYLQMNSLRAEDTAVYYCARSANWHDTALDYWGQGTLVTVSS VL: DIQMTQSPSSLSASVGDRVTITCRASQSILTYVNWYQQKPGKAPKLVIYAVTSRASGVPSRFSGSGSGTDFTLTISSLQPEDFATYYCQQSYETPLTFGGGTKVEIK | 3.17 OD | 3.49 OD | 3.47 OD
11 | 373_H05 (antibody, V domains shown) VH: EVQLLESGGGLVQPGGSLRLSCAASGFTFSDYSMNWVRQAPGKGLEWVANINYNGGYKGYADSVKGRFTISRDNSKNTLYLQMNSLRAEDTAVYYCARSANWHDTALDYWGQGTLVTVSS VL: DIQMTQSPSSLSASVGDRVTITCRASQSILTYVNWYQQKPGKAPKLVIYAATSRASGVPSRFSGSGSGTDFTLTISSLQPEDFATYYCQQSYETPLTFGGGTKVEIK | 3.22 OD | 3.29 OD | 3.29 OD

Further lines, results first:

Row | optical density (Goat anti-Human Kappa) | optical density (Human ACVR2A) | optical density (Mouse ACVR2A) | Binder
12 | 3.26 OD | 3.47 OD | 3.29 OD | 373_G12 (antibody, V domains shown) VH: EVQLLESGGGLVQPGGSLRLSCAASGFTFSSYSMNWVRQAPGKGLEWVSNINYNGGYTSYADSVKGRFTISRDNSKNTLYLQMNSLRAEDTAVYYCARSANWHDTALDYWGQGTLVTVSS VL: DIQMTQSPSSLSASVGDRVTITCRASQSILSYLNWYQQKPGKAPKLLIYATTSLASGVPSRFSGSGSGTDFTLTISSLQPEDFATYYCQQSYNSPLTFGGGTKVEIK
13 | 3.26 OD | 3.54 OD | 3.56 OD | 373_G10 (antibody, V domains shown) VH: EVQLLESGGGLVQPGGSLRLSCAASGFTFSDYGMNWVRQAPGKGLEWVSNINYNGGYKSYADSVKGRFTISRDNSKNTLYLQMNSLRAEDTAVYYCARSANWHDTALDYWGQGTLVTVSS VL: DIQMTQSPSSLSASVGDRVTITCRASQSIVSYVNWYQQKPGKAPKLLIYAATSRASGVPSRFSGSGSGTDFTLTISSLQPEDFATYYCQQSYDLPLTFGGGTKVEIK
14 | 3.16 OD | 3.54 OD | 3.53 OD | 373_C06 (antibody, V domains shown) VH: EVQLLESGGGLVQPGGSLRLSCAASGFTFSSYSMNWVRQAPGKGLEWVAGINYNGGYTGYADSVKGRFTISRDNSKNTLYLQMNSLRAEDTAVYYCARSANWHDTALDYWGQGTLVTVSS VL: DIQMTQSPSSLSASVGDRVTITCRASQSIVSYVNWYQQKPGKAPKLVIYAATSRASGVPSRFSGSGSGTDFTLTISSLQPEDFATYYCQQSYDTPLTFGGGTKVEIK
15 | 3.04 OD | 3.23 OD | 3.57 OD | 373_D01 (antibody, V domains shown) VH: EVQLLESGGGLVQPGGSLRLSCAASGFTFDSYSMNWVRQAPGKGLEWVSGINYNSGYKSYADSVKGRFTISRDNSKNTLYLQMNSLRAEDTAVYYCARSANWHDTHLDYWGQGTLVTVSS VL: DIQMTQSPSSLSASVGDRVTITCRASQSILSYVNWYQQKPGKAPKLVIYAATSRASGVPSRFSGSGSGTDFTLTISSLQPEDFATYYCQQSYDSPLTFGGGTKVEIK
16 | 3.2 OD | 3.36 OD | 3.5 OD | 373_C04 (antibody, V domains shown) VH: EVQLLESGGGLVQPGGSLRLSCAASGFTFSSYSMNWVRQAPGKGLEWVANINYNSGYTGYADSVKGRFTISRDNSKNTLYLQMNSLRAEDTAVYYCARSANWHDTALDYWGQGTLVTVSS VL: DIQMTQSPSSLSASVGDRVTITCRASQSIISYVNWYQQKPGKAPKLVIYAVTSRASGVPSRFSGSGSGTDFTLTISSLQPEDFATYYCQQSYNSPLTFGGGTKVEIK
17 | 3.23 OD | 3.48 OD | 3.54 OD | 373_E07 (antibody, V domains shown) VH: EVQLLESGGGLVQPGGSLRLSCAASGFTFSSYGMNWVRQAPGKGLEWVANINYNGGYTSYADSVKGRFTISRDNSKNTLYLQMNSLRAEDTAVYYCARSANWHDTALDYWGQGTLVTVSS VL: DIQMTQSPSSLSASVGDRVTITCRASQSILTYVNWYQQKPGKAPKLLIYAATSLASGVPSRFSGSGSGTDFTLTISSLQPEDFATYYCQQSYETPLTFGGGTKVEIK
18 | 2.99 OD | 2.35 OD | 2.56 OD | 373_E01 (antibody, V domains shown) VH: EVQLLESGGGLVQPGGSLRLSCAASGFTFSSYGMNWVRQAPGKGLEWVSGINYNGGYKGYADSVKGRFTISRDNSKNTLYLQMNSLRAEDTAVYYCARSANWHDTALDYWGQGTLVTVSS VL: DIQMTQSPSSLSASVGDRVTITCRASQSIVSYVNWYQQKPGKAPKLLIYAATSRHSGVPSRFSGSGSGTDFTLTISSLQPEDFATYYCQQSYNNPLTFGGGTKVEIK
19 | 3.25 OD | 3.68 OD | 3.73 OD | 373_D05 (antibody, V domains shown) VH: EVQLLESGGGLVQPGGSLRLSCAASGFTFSSYSMNWVRQAPGKGLEWVSGINYNSGYKGYADSVKGRFTISRDNSKNTLYLQMNSLRAEDTAVYYCARSANWHDTALDYWGQGTLVTVSS VL: DIQMTQSPSSLSASVGDRVTITCRASQSILSYLNWYQQKPGKAPKLVIYAATSRASGVPSRFSGSGSGTDFTLTISSLQPEDFATYYCQQSYDSPLTFGGGTKVEIK
